B1: LF16: anti-human Pear1 monoclonal antibody; VH SEQ ID NO: 5, VL SEQ ID NO: 20 (antibody, V domains shown)
VH: EVQLQQSGPELVKPGASMKISCKASGYAFTGYTMNWVKQSHGKNLDWIGVINGYNGGTSYNQKFKGKATLTVDKSSSTAYMELLSLTSEDSAIYYCARGGPTTGFVYWGQGTLVTVSA
VL: DIQMTQTSSSFSVSLGDRVTITCKASEDIYNRLAWYQQKPGNAPRLLISGATSLETGVPSRFSGSGSGKDYTLSITSLQTEDVATYYCQQYWSTPTFGAGTKLELK
B2: LF11: anti-human Pear1 monoclonal antibody; VH SEQ ID NO: 2, VL SEQ ID NO: 18 (antibody, V domains shown)
VH: EVQLQQSGPELVKPGASMKISCKASGYSFTGYPMNWVKQTHGKNLEWIGLINPYNGGTSYNQKFKGKATLTVDKSSSTAYMELLSLTSDESAVYYCARGGVRPFDFWGQGTLVTVSA
VL: DIVITQSPAIMSASPGEKVTMTCSARSSVSYMYWYQQKPGSSPRLLIYDTSKLASGVPVRFSGSGSGTSYSLTISRMEAEDAATYFCQQWSSYPPTFGGGTKLEIK
B3: LF15: anti-human Pear1 monoclonal antibody; VH SEQ ID NO: 4, VL SEQ ID NO: 19 (antibody, V domains shown)
VH: EVQLQQSGPELVKPGASMKISCKASGYSFTGYTMNWVKQSHGENLEWIGVINPYNGGTSYNQKFKGKATLTVDKSFSTAYMEILSLTSEDSAVYYCSRGGGNSWFAYWGQGTLVTVSA
VL: DIQMTQTSSYLSVSLGGRVTITCKASDHINNWLAWYQQKPGNAPRLLISGATSLETGVPSRFSGSGSGTDYSLTITSLQTEDVATYYCQQYWSIPTFGGGTRLEIK

Test system: IPF fibroblasts
Assay: qPCR of extracellular matrix genes collagen 7a1 and matrix metalloproteinase inhibitor 1 in TGFβ-induced IPF fibroblasts
Type: cell-based, human
Details: Example 3, FIG. 4-6, TGFβ-induced IPF fibroblasts treated 48 hours, 18sRNA reference
Source text: IPF fibroblasts of patients were purchased from the ATCC cell library.
IPF fibroblasts in Method 2 were collected. Total mRNA was extracted by Trizol method (Invitrogen, Carlsbad, CA) according to standard protocols. Complementary DNA was synthesized using reverse transcriptase (Takara). ABI7000 Real-time PCR instrument (Life Technologies) was used to detect gene expression and the PCR primer sequences are shown in Table 1. The 18sRNA gene was used as an internal reference.
Experimental groups including anti-Pear1 antibodies LF11, LF15, LF16 used alone, and their combinations with pirfenidone or nintedanib respectively, and experimental groups including pirfenidone or nintedanib used alone and a control group were established. TGFβ-induced IPF fibroblasts were treated for 48 hours, and then cells were collected. The qPCR method was used to detect the effect on the synthesis of extracellular matrix proteins collagen 7a1 and matrix metalloproteinase inhibitor 1 (primers are shown in Table 1).

| Molecule | inhibition of expression of extracellular matrix proteins (collagen 7a1, matrix metalloproteinase inhibitor 1) in IPF fibroblasts |
| --- | --- |
| COC(=O)c1ccc2c(c1)NC(=O)/C2=C(\Nc1ccc(N(C)C(=O)CN2CCN(C)CC2)cc1)c1ccccc1 [nintedanib, reference compound] | inhibit the expression of extracellular matrix proteins in IPF fibroblasts to some extent |
| Cc1ccc(=O)n(-c2ccccc2)c1 [pirfenidone, reference compound] | inhibit the expression of extracellular matrix proteins in IPF fibroblasts to some extent |
| B1 | inhibit the expression of extracellular matrix proteins in IPF fibroblasts to some extent |
| B2 | inhibit the expression of extracellular matrix proteins in IPF fibroblasts to some extent |
| B3 | inhibit the expression of extracellular matrix proteins in IPF fibroblasts to some extent |
